Assay results as given in paper PMC12809495, “Potential 14-3-3 binding sites in sirtuins reveal extended phosphosite-recognition modes” (Acta Crystallographica Section F: Structural Biology …, 2026).
Where two headings read alike, the source gives them in different places. Where a SMILES comes first, the peptide text is derived from it. Where no end group is shown, it is not given here. [ ]: non-standard residue; d: D form. pT = C[C@@H](OP(=O)(O)O)[C@H](N)C(=O)O; pS = N[C@@H](COP(=O)(O)O)C(=O)O

Assays:
14-3-3 isoform epsilon = biological target: T1, 14-3-3 isoform epsilon (Homo sapiens, UniProt P62258); experiment: Label-free microscale thermophoresis (MST) binding, 14-3-3 epsilon
T1 construct: His6; made in house; host or cells: Escherichia coli BL21 Rosetta (DE3)
T1 sequence (P62258 1-255): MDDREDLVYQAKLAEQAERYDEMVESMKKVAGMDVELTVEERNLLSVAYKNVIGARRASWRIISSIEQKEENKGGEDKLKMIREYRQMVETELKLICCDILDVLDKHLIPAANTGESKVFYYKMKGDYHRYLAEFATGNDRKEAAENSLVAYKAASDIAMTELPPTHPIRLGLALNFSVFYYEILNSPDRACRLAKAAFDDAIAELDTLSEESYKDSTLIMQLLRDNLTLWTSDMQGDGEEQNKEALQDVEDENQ
Experimental: (§1) The binding of phosphorylated sirtuin peptides (Fig. 1 ▸) was analyzed using the change in the intrinsic fluorescence signal of the 14-3-3 proteins measured with label-free microscale thermophoresis using a Nanotemper Monolith NT.LabelFree or NT.115. A typical binding experiment using 0.6 µM 14-3-3 protein was performed in a modified MST buffer consisting of 25 mM MES pH 6.5, 5 mM MgCl2, 5 mM CaCl2. The measurements were performed at 25°C using a LED power of 10–40%. All measurements were performed at least in duplicate, and the results shown are representative measurements individually fitted using GraFit 7 (Erathicus Software, Horley, United Kingdom).
(§2) Figure 1 Classification and analysis of sirtuin PSSM results for potential 14-3-3 phosphoserine binding sites. Peptides with a gray background were not analyzed experimentally. Score is the overall PSSM score for the phosphorylation site; rank is the order within the 17 proposed sirtuin binding sites. Conserved residues in the 14-3-3 motifs are marked in green. Residues with restricted (proline) or very flexible (glycine) protein backbone or with a very large side chain (tryptophan) are marked in red. Amino acids with the same or similar hydrophobicity/size are shown in magenta. Kd values from duplicate measurements are colored green for Kd < 100 µM. Fields marked in red indicate no binding or no successful experiment. TEXT PRINTED IN THE PICTURE: Sirt1 S26: Affinity estimates by MicroScale Thermophoresis [μM], 14-3-3 isoform sigma: none | Sirt1 S670: Affinity estimates by MicroScale Thermophoresis [μM], 14-3-3 isoform gamma: aggr.; Affinity estimates by MicroScale Thermophoresis [μM], 14-3-3 isoform epsilon: > 183; Affinity estimates by MicroScale Thermophoresis [μM], 14-3-3 isoform theta: 93; Affinity estimates by MicroScale Thermophoresis [μM], 14-3-3 isoform sigma: 5 | Sirt3 S103: Affinity estimates by MicroScale Thermophoresis [μM], 14-3-3 isoform gamma: aggr.; Affinity estimates by MicroScale Thermophoresis [μM], 14-3-3 isoform epsilon: > 267; Affinity estimates by MicroScale Thermophoresis [μM], 14-3-3 isoform theta: 52; Affinity estimates by MicroScale Thermophoresis [μM], 14-3-3 isoform sigma: 10 | Sirt3 S103wt: Affinity estimates by MicroScale Thermophoresis [μM], 14-3-3 isoform gamma: aggr.; Affinity estimates by MicroScale Thermophoresis [μM], 14-3-3 isoform theta: none; Affinity estimates by MicroScale Thermophoresis [μM], 14-3-3 isoform sigma: none | Sirt3 S105: Affinity estimates by MicroScale Thermophoresis [μM], 14-3-3 isoform gamma: aggr.; Affinity estimates by MicroScale Thermophoresis [μM], 14-3-3 isoform epsilon: > 215; Affinity estimates by MicroScale Thermophoresis [μM], 14-3-3 isoform theta: 60; Affinity estimates by MicroScale Thermophoresis [μM], 14-3-3 isoform sigma: none | Sirt5 S168: Affinity estimates by MicroScale Thermophoresis [μM], 14-3-3 isoform epsilon: aggr.; Affinity estimates by MicroScale Thermophoresis [μM], 14-3-3 isoform theta: aggr.; Affinity estimates by MicroScale Thermophoresis [μM], 14-3-3 isoform sigma: > 329 | Sirt6 T337: Affinity estimates by MicroScale Thermophoresis [μM], 14-3-3 isoform epsilon: > 420; Affinity estimates by MicroScale Thermophoresis [μM], 14-3-3 isoform sigma: 12 | Sirt6 S338: Affinity estimates by MicroScale Thermophoresis [μM], 14-3-3 isoform epsilon: 19; Affinity estimates by MicroScale Thermophoresis [μM], 14-3-3 isoform sigma: 24 | Sirt7 S136: Affinity estimates by MicroScale Thermophoresis [μM], 14-3-3 isoform epsilon: none; Affinity estimates by MicroScale Thermophoresis [μM], 14-3-3 isoform theta: 30; Affinity estimates by MicroScale Thermophoresis [μM], 14-3-3 isoform sigma: 49

14-3-3 isoform theta = biological target: T2, 14-3-3 isoform theta (Homo sapiens, UniProt P27348); experiment: Label-free microscale thermophoresis (MST) binding, 14-3-3 theta; settings: label-free MST, 0.6 µM 14-3-3 protein, 25 mM MES pH 6.5, 5 mM MgCl2, 5 mM CaCl2, 25°C, Kd from duplicate measurements
T2 construct: His6; made in house; host or cells: Escherichia coli BL21 Rosetta (DE3)
T2 sequence (P27348 1-245): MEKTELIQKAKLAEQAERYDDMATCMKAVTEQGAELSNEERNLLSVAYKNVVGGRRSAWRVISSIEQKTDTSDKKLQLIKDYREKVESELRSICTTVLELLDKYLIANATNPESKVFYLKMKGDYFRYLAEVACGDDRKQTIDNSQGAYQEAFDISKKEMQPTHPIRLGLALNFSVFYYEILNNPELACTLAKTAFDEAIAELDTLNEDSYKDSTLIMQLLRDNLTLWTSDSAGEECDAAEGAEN
Experimental: as §1, §2

[1] = biological target: T3, 14-3-3σ-ΔC (C-terminally truncated human 14-3-3σ) (human, UniProt P31947 1-231); experiment: MST
T3 chain: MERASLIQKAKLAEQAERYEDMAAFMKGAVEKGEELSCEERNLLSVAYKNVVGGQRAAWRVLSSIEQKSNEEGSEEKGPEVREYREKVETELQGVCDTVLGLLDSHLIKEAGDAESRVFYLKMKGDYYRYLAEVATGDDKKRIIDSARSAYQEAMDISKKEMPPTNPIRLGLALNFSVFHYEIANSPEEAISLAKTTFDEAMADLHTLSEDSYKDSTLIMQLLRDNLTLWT

14-3-3 theta = biological target: T4, 14-3-3 theta (Homo sapiens); experiment: MST
T4 chain: T2 sequence (P27348 1-245)

14-3-3 epsilon = biological target: T5, 14-3-3 epsilon (Homo sapiens); experiment: MST
T5 chain: T1 sequence (P62258 1-255)

[2] = label-free MST, 0.6 µM 14-3-3 protein, 25 mM MES pH 6.5, 5 mM MgCl2, 5 mM CaCl2, 25°C, Kd from duplicate measurements

CC(C)C[C@H](NC(=O)[C@H](CC(=O)O)NC(=O)[C@H](C)NC(=O)[C@H](C)NC(=O)[C@H](COP(=O)(O)O)NC(=O)[C@@H](NC(=O)[C@H](CO)NC(=O)[C@H](CCCNC(=N)N)NC(=O)CNC(=O)[C@@H](N)CCCCN)C(C)C)C(=O)N[C@@H](CO)C(=O)O [Sirt7 S136] (H-KGRSV[pS]AADLS-OH)
Affinity estimates by MicroScale Thermophoresis, 14-3-3 isoform epsilon (Kd) (14-3-3 isoform epsilon; [2]): none
Kd (14-3-3 isoform theta; read-out: Affinity estimates by MicroScale Thermophoresis, 14-3-3 isoform theta (Kd)): 30 µM

C[C@H](NC(=O)[C@@H]1CCCN1C(=O)[C@H](COP(=O)(O)O)NC(=O)[C@@H](NC(=O)[C@@H]1CCCN1C(=O)[C@H](CCCNC(=N)N)NC(=O)[C@H](CCC(=O)O)NC(=O)[C@@H](N)CCCNC(=N)N)[C@@H](C)O)C(=O)N1CCC[C@H]1C(=O)N[C@@H](Cc1c[nH]cn1)C(=O)N[C@@H](CCCNC(=N)N)C(=O)O [Sirt6^pS338] (H-RERPT[pS]PAPHR-OH)
Kd (14-3-3 isoform epsilon; label-free MST, 0.6 µM 14-3-3 protein, 25 mM MES pH 6.5, 5 mM MgCl2, 5 mM CaCl2, 25°C, Kd from duplicate measurements, read-out: Affinity estimates by MicroScale Thermophoresis, 14-3-3 isoform epsilon (Kd)): 19 µM

CC(C)[C@H](NC(=O)CNC(=O)[C@H](CS)NC(=O)[C@H](COP(=O)(O)O)NC(=O)[C@@H](NC(=O)[C@H](CS)NC(=O)[C@H](CCCNC(=N)N)NC(=O)[C@@H](NC(=O)[C@@H](N)CCCCN)[C@@H](C)O)[C@@H](C)O)C(=O)N[C@H](C(=O)N[C@@H](C)C(=O)O)C(C)C [Sirt5 S168] (H-KTRCT[pS]CGVVA-OH; N-terminus and C-terminus assumed)
Affinity estimates by MicroScale Thermophoresis, 14-3-3 isoform epsilon (Kd) (14-3-3 isoform epsilon; [2]): aggr.
Affinity estimates by MicroScale Thermophoresis, 14-3-3 isoform theta (Kd) (14-3-3 isoform theta): aggr.

C[C@H](NC(=O)[C@@H]1CCCN1C(=O)[C@H](CO)NC(=O)[C@@H](NC(=O)[C@@H]1CCCN1C(=O)[C@H](CCCNC(=N)N)NC(=O)[C@H](CCC(=O)O)NC(=O)[C@H](CCCNC(=N)N)NC(=O)[C@@H](N)CCCCN)[C@@H](C)OP(=O)(O)O)C(=O)N1CCC[C@H]1C(=O)N[C@@H](Cc1c[nH]cn1)C(=O)O [Sirt6^pT337] (H-KRERP[pT]SPAPH-OH)
Kd (14-3-3 isoform epsilon): > 420 µM

KTRCT[pS]CGVVA (cysteine pairing not given here) [Sirt5 pS168]
Kd [1]: > 329 µM

KGRSV[pS]AADLS [Sirt7 pS136, listing 1 of 2 here]
Kd (14-3-3 theta): 30 µM

KRERP[pT]SPAPH [Sirt6^pT336 phospho-endecamer peptide]
Kd (14-3-3 epsilon): > 420 µM
Kd [1]: 12 µM

KGRSV[pS]AADLS [Sirt7 pS136, listing 2 of 2 here]
Kd [1]: 49 µM

RSISF[pS]VGASS (also: phosphoserine at 105 (place in chain not given here)) [Sirt3^pS105 phospho-endecamer peptide]
Kd (14-3-3 theta): 60 µM
Kd (14-3-3 epsilon): > 215 µM

RERPT[pS]PAPHR [Sirt6^pS338 phospho-endecamer peptide]
Kd (14-3-3 epsilon): 19 µM
Kd [1]: 24 µM
